The target in assay [1] is PDGFRα-V242K (UniProt P16234).
Assay [2] deals with PDGFRα-V242K (UniProt P16234). The source holds these as a separate data set.
Assay [3] has as its target HCMV gH/gL/gO complex (strain TR; gO allele gO1b) (human cytomegalovirus (HCMV) strain TR).

The values that follow come from publication PMC12090739.

In the case of “HCMV gH/gL/gO complex (strain TR; gO allele gO1b)”, the rate of gB-mediated cell–cell fusion (split luciferase, live cells); ARPE19 target cells with PDGFRα against those without with PDGFRα-V242K [1] was over 100 fold. Consider “HCMV gH/gL/gO complex with gO allele gO1a”, for which the rate of gH/gL/gO-PDGFRα-dependent cell–cell fusion, as percent of parental gO1b (% of parental gO1b) in the assay with PDGFRα-V242K [2] was 83. “HCMV gH/gL/gO complex with gO allele gO1c”: the rate of gH/gL/gO-PDGFRα-dependent cell–cell fusion, as percent of parental gO1b (% of parental gO1b) in the assay with PDGFRα-V242K [2] was 107.

Regarding “HCMV gH/gL/gO complex with gO allele gO2a”, in the assay with PDGFRα-V242K [2], the rate of gH/gL/gO-PDGFRα-dependent cell–cell fusion, as percent of parental gO1b (% of parental gO1b) was determined as 112. As to “soluble PDGFRα-FC (from UniProt P16234 24-528) (Fc fusion)”, in assay [3], the inhibition of the rate of gH/gL/gO-PDGFRα-dependent cell–cell fusion (pair that is blocked: m1 and m2) is 2.5 fold.
